From US20060121580A1 (CRUCELL HOLLAND B V, published 2006)

Tests used:
[1] = molecular target: S565 fragment (amino acids 1-565 of the S protein of SARS-CoV), myc-His tagged (SARS-CoV strain Frankfurt 1, UniProt P59594 14-565); experiment: IgG ELISA on captured S565
[2] = molecular target: full length S protein of SARS-CoV expressed on HEK293T cells (SARS-CoV strain Frankfurt 1, UniProt P59594 14-1255); experiment: flow cytometry, 10 µg/ml IgG on transfected HEK293T cells
[3] = molecular target: S318-510 fragment (amino acids 318-510 of the S protein of SARS-CoV Frankfurt 1), myc-His tagged (SARS-CoV strain Frankfurt 1, UniProt P59594 318-510); experiment: IgG ELISA on S318-510 fragment

Binder | binding result [1] | binding result [2] | binding result [3]
human monoclonal anti-SARS-CoV antibody 03-006 (antibody, V domains shown) VH: EVQLVESGGGLVQPGGSLRLSCAASGFTFSGYPMHWVRQAPGKGLEWVAVISYDGSNKYYADSVKGRFTISRDNSKNTLYLQMNSLRAEDTAVYYCAKDGSPRTPSFDYWGQGTLVTVSS VL: DIQMTQSPHSLSASVGDRVTITCRASQGISNYLAWYQQKPGKVPKLLIYAASTLQSGVPSRFSGSGSGTDFTLTISSLQPEDVGVYYCQQRFRTPVTFGQGTKLEIKR | binds | binds | binds
human monoclonal anti-SARS-CoV antibody 03-013 (antibody, V domains shown) VH: EVQLVESGGGLVQPGGSLRLSCAASGFTFSDHYMDWVRQAPGKGLEWVGRTRNKANSYTTEYAASVKGRFTISRDDSKNSLYLQMNSLKTEDTAVYYCAKGLTPLYFDYWGQGTLVTVSS VL: not shown | binds | binds | binds
human monoclonal anti-SARS-CoV antibody 03-015 (antibody, V domains shown) VH: EVQLVESGGGVVRPGGSLRLSCAASGFTFDDYGMSWVRQAPGKGLEWVSGINWNGGSTGYADSVKGRFTISRDNAKNSLYLQMNSLRAEDTAVYYCARGLSLRPWGQGTLVTVSS VL: SSELTQDPAESVALGQTVRITCQGDSLRSYYASWYQQKPGQAPVLVIYGKNNRPSGIPDRFSGSSSGNTASLTITGAQAEDEADYYCNSRDSSGNHVVFGGGTKLTVLG | no binding | binds | no binding
human monoclonal anti-SARS-CoV antibody 03-014 (antibody, V domains shown) VH: EVQLVESGGGLVQPGGSLRLSCAASGFTFSDHYMDWVRQAPGKGLEWVGRTRNKANSYTTEYAASVKGRFTISRDDSKNSLYLQMNSLKTEDTAVYYCARGISPFYFDYWGQGTLVTVSS VL: not shown | binds |  | binds
human monoclonal anti-SARS-CoV antibody 03-001 (antibody, V domains shown) VH: EVQLVESGGGLVKPGGSLRLSCAASGFTFSGYSMNWVRQAPGKGLEWVSSISGGSTYYADSRKGRFTISRDNSKNTLYLQMNNLRAEDTAVYYCARHRFRHVFDYWGQGTLVTVSS VL: not shown |  |  | no binding
human monoclonal anti-SARS-CoV antibody 03-002 (antibody, V domains shown) VH: EVQLVESGGGLVKPGGSLRLSCAASGFTFSGYSMSWVRQAPGKGLEWVGRTRNKANSYTTEYAASVKGRFTISRDDSKNSLYLQMNSLKTEDTAVYYCARYYSRSLKAFDYWGQGTLVTVSS VL: not shown |  |  | no binding
human monoclonal anti-SARS-CoV antibody 03-009 (antibody, V domains shown) VH: EVQLVESGGGVVQPGRSLRLSCAASGFTFSDYPMNWVRQAPGKGLEWVSSISGSGGSTYYADSVKGRFTISRDNSKNTLYLQMNSLRAEDTAVYYCAKGLFMVTTYAFDYWGQGTLVTVSS VL: not shown |  |  | no binding
